The test system of data set [1] is AR(me2sym)TKQTARKSTGGKAPPK
Data set [2] relates to AR(me2asym)TKQTARKSTGGKAPPK

For “N-terminally His6-tagged human Jmjd6 (residues 1-343)”, the “activity (hydroxylation of the peptide by Jmjd6, MALDI-TOF MS)” value in data set [1] and in data set [2] was “Double hydroxylation no demethylation” in each case. Further, the “hydroxylation of the peptide by Jmjd6” value in the data set on peptide f was “Peptides f and g, which do not contain any lysine residues, were not hydroxylated by Jmjd6”; in the data set on peptide g, “Peptides f and g, which do not contain any lysine residues, were not hydroxylated by Jmjd6”. Also, the “Jmj6 hydroxylation activity (standard assay, MALDI-TOF MS)” value in the data set on NPKRSRSREHRR (peptide d) was “both the truncated Jmjd6 polypeptides and full-length Jmjd6 hydroxylated peptide d”. Moreover, the “position of hydroxylation (MS/MS)” value in the data set on NPKRSRSREHRR (peptide d) was “consistent with the hydroxylation of lysine-3 in peptide d, corresponding to lysine 269 in LUC-like2”.

With full-length Jmjd6 (recombinant), in the data set on NPKRSRSREHRR (peptide d), the “Jmj6 hydroxylation activity (standard assay, MALDI-TOF MS)” value was “both the truncated Jmjd6 polypeptides and full-length Jmjd6 hydroxylated peptide d”; the “hydroxylation of the peptide (MALDI-TOF MS), large scale” value is given as “leaving the assay mixture overnight at room temperature till peptide showed complete hydroxylation”.

(Values after US20110130449.)
